Reference: patent US20220135701A1 (Genentech, published 2022)
Where two headings read alike, the source gives them in different places.

Columns and labels:
human MerTK [1] = molecular target: T1, human MerTK (human, UniProt Q12866 26-499); experiment: SPR (BIAcore kinetic screen), h13B4.v16 captured on protein A chip, hMerTK as analyte, 25°C, 1:1 binding model [Cont.]
T1 construct: also called HuMER
T1 sequence: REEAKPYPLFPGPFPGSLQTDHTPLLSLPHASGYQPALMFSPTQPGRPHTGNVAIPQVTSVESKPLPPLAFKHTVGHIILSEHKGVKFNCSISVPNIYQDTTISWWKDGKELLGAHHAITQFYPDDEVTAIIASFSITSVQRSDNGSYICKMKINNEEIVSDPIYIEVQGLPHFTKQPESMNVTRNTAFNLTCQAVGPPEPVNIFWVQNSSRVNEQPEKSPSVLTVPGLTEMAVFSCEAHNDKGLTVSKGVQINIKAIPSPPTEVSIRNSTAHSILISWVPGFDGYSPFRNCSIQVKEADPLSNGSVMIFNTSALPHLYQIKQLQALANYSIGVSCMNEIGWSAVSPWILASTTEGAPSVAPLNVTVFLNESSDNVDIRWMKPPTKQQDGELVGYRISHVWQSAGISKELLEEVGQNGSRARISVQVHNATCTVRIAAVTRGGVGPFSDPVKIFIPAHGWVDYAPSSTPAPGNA
From the text: (§1) For binding affinity determinations of anti-MerTK antibodies of the present disclosure as a control along with commercial MerTK antibodies, Surface Plasmon Resonance (SPR) measurement with a BIAcore™-T200 instrument was used. First, two rabbit antibodies (Y323 and 10g86_D21F11) and the anti-MerTK antibody h13B4.v16 were captured by protein A sensor chip, and eight mouse antibodies (A3KCAT,2D2,7E5G1,7N-20,590H11G1E3, MAB891, MAB8911 and MAB8912-100) were captured by goat anti-mouse IgGs sensor chip respectively on each flow cell to achieve approximately 100RU. Three-fold serial dilutions of human MerTK (0.4 nM to 100 nM) were injected in HBS-EP buffer (0.01M HEPES pH 7.4, 0.15M NaCl, 3 mM EDTA and 0.05% v/v surfactant P20) at 25° C. with a flow rate of 50 μl/min to record the binding response as a function of time. The sensorgram was fitted with one-to-one Langmuir binding model to calculate association rates (kₒₙ) and dissociation rates (koff) (BIAcore T200 evaluation software version 2.0). The binding affinity (equilibrium dissociation constant (KD)) was calculated as the ratio koff/kₒₙ.

human MerTK [2] = molecular target: T1, human MerTK; experiment: SPR BIAcore T200, Ab captured on protein A chip, 25C
From the text: as §1

[3] = molecular target: T2, human MerTK on human macrophages (human, UniProt Q12866 21-999); experiment: cell-based or functional assay
T2 sequence: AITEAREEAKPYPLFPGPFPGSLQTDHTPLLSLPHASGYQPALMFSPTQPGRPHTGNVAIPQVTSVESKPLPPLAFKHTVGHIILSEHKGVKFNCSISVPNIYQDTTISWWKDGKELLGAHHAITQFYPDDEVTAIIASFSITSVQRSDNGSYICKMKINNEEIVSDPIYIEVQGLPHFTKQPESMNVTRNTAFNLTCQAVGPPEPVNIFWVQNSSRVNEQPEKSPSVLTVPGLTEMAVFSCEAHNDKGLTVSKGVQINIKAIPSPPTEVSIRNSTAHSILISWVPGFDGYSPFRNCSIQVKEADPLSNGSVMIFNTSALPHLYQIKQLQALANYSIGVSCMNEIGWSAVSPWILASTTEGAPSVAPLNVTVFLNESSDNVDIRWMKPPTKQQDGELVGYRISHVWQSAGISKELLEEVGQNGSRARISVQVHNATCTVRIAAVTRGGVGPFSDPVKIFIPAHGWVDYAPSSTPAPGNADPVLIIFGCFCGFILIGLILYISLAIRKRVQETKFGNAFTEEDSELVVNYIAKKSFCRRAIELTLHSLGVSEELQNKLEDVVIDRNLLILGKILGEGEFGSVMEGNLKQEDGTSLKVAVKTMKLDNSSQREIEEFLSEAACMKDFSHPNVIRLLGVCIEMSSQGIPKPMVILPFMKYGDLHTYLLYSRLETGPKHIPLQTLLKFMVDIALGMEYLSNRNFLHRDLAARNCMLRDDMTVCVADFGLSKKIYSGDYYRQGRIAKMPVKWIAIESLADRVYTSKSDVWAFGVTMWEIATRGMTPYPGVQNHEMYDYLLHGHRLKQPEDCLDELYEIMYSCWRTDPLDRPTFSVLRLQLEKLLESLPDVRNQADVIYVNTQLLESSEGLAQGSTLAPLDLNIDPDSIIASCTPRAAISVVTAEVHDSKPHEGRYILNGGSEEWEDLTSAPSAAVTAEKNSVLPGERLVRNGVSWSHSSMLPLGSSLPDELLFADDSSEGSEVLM

[4] = molecular target: T2, human MerTK on human macrophages; experiment: cell-based or functional assay; remark: listed apart in the source
[5] = molecular target: T2, human MerTK on human macrophages; experiment: cell-based or functional assay; remark: listed apart in the source
human MerTK [6] = molecular target: T1, human MerTK; experiment: SPR BIAcore T200, Ab captured, 37C
Method: (§2) All binding affinity determinations were obtained using Surface Plasmon Resonance (SPR) measurements from a BIAcore™-T200 instrument. Briefly, each rabbit or humanized antibody was captured to achieve approximately 100 RU (Response Units). Then, 3-fold serial dilutions of MerTK from various species (0.4 nM to 100 nM) diluted in HBS-EP buffer (0.01M HEPES pH 7.4, 0.15M NaCl, 3 mM EDTA and 0.05% v/v surfactant P20) was injected into the BIAcore™-T200 instrument at 25° C. or 37° C. with a flow rate of 30 μl/min. Association rates (kₒₙ) and dissociation rates (koff) were calculated using a simple one-to-one Langmuir binding model (BIAcore T200 evaluation software version 2.0). The equilibrium dissociation constant (KD) was calculated as the ratio koff/kₒₙ.

cynomolgus monkey MerTK = molecular target: T3, cynomolgus monkey MerTK (cynomolgus monkey, UniProt A0A2K5V1H9 32-505); experiment: SPR BIAcore T200, Ab captured, 37C
T3 construct: Soluble analyte in SPR; also called Cyno MerTK
T3 sequence: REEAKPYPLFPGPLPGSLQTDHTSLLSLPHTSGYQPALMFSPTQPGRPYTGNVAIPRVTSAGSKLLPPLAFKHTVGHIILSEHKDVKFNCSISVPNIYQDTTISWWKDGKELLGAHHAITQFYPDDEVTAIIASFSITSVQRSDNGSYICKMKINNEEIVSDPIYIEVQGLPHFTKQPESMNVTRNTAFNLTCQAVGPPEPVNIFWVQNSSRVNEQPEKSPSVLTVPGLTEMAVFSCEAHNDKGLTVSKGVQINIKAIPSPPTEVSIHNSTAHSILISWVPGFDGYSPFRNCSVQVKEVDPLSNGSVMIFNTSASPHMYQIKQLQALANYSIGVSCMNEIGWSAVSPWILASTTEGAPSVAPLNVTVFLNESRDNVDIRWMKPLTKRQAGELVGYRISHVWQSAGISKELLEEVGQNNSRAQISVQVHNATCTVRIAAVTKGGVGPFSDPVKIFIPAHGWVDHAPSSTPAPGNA
Method: as §2

Kd (human MerTK [1]): 1.63 nM | koff (human MerTK [1]): 0.000151 s⁻¹ | kon (human MerTK [1]): 92400 M⁻¹ s⁻¹ | Kd (human MerTK [2]): 1.6 nM | fold potency in inhibiting human macrophage phagocytosis, against h10F7.v16 [3]: 5.2 fold | IC50 (nM), efferocytosis by human macrophages, Average (3 Donors) [4]: 0.08 nM | IC50 (nM), efferocytosis by human macrophages, Average (3 Donors) [5]: 0.08 nM | IC50 (nM), efferocytosis by human macrophages, Donor A [5]: 0.07 nM | IC50 (nM), efferocytosis by human macrophages, Donor B [5]: 0.08 nM | IC50 (nM), efferocytosis by human macrophages, Donor C [5]: 0.09 nM | Max Inhibition (%), efferocytosis by human macrophages, Average (3 Donors) [5]: 83% | Max Inhibition (%), efferocytosis by human macrophages, Donor A [5]: 91% | Max Inhibition (%), efferocytosis by human macrophages, Donor B [5]: 82% | Max Inhibition (%), efferocytosis by human macrophages, Donor C [5]: 77% | Kd (human MerTK [6]): 5.1 nM | Kd (cynomolgus monkey MerTK): 5.7 nM
B1: h13B4.v16 (antibody, V domains shown)
VH: EVQLVESGEGLVQPGGSLRLSCAASGFSLSSYAMGWVRQAPGKGLEYVGIINSYGNTYYANWAKGRFTISRDNSKNTVYLQMGSLRAEDMAVYYCARDPGVSSNLWGRGTLVTVSS
VL: DIQMTQSPSTLSASVGDRVTITCQASQNIYSGLAWYQQKPGKAPKLLIYGASKLASGVPSRFSGSGSGTEFTLTISSLQPDDFATYYCQATYYSSNSVAFGGGTKVEIK
notes: Humanized, human IgG1; also called 13B4 Fully Humanized; 13B4 Humanized polished mAb
